Test results reported in publication doi:10.1101/2021.01.28.428001 (bioRxiv, 2021).
One block for each molecule: values may come before it.

What was measured:
[1] = target: 2xFLAG-MBP-CYT (cytosolic domain of NOMO1 fused to maltose binding protein) (human); assay: SEC
SEC-MALS = target: the molecule itself; assay: SEC-MALS

stoichiometry N [1]: 2
Molecule: 2xFLAG-MBP-CYT (cytosolic domain of NOMO1 fused to maltose binding protein) (domain or fragment)

B1: Nodal Modulator 1 (NOMO1), full length, with C-terminal FLAG tag (natural protein, human, UniProt Q15155 32-1222, looked up)
chain: SEDIVVGCGGFVKSDVEINYSLIEIKLYTKHGTLKYQTDCAPNNGYFMIPLYDKGDFILKIEPPLGWSFEPTTVELHVDGVSDICTKGGDINFVFTGFSVNGKVLSKGQPLGPAGVQVSLRNTGTEAKIQSTVTQPGGKFAFFKVLPGDYEILATHPTWALKEASTTVRVTNSNANAASPLIVAGYNVSGSVRSDGEPMKGVKFLLFSSLVTKEDVLGCNVSPVPGFQPQDESLVYLCYTVSREDGSFSFYSLPSGGYTVIPFYRGERITFDVAPSRLDFTVEHDSLKIEPVFHVMGFSVTGRVLNGPEGDGVPEAVVTLNNQIKVKTKADGSFRLENITTGTYTIHAQKEHLYFETVTIKIAPNTPQLADIIATGFSVCGQISIIRFPDTVKQMNKYKVVLSSQDKDKSLVTVETDAHGSFCFKAKPGTYKVQVMVPEAETRAGLTLKPQTFPLTVTNRPMMDVAFVQFLASVSGKVSCLDTCGDLLVTLQSLSRQGEKRSLQLSGKVNAMTFTFDNVLPGKYKISIMHEDWCWKNKSLEVEVLEDDMSAVEFRQTGYMLRCSLSHAITLEFYQDGNGRENVGIYNLSKGVNRFCLSKPGVYKVTPRSCHRFEQAFYTYDTSSPSILTLTAIRHHVLGTITTDKMMDVTVTIKSSIDSEPALVLGPLKSVQELRREQQLAEIEARRQEREKNGNEEGEERMTKPPVQEMVDELQGPFSYDFSYWARSGEKITVTPSSKELLFYPPSMEAVVSGESCPGKLIEIHGKAGLFLEGQIHPELEGVEIVISEKGASSPLITVFTDDKGAYSVGPLHSDLEYTVTSQKEGYVLTAVEGTIGDFKAYALAGVSFEIKAEDDQPLPGVLLSLSGGLFRSNLLTQDNGILTFSNLSPGQYYFKPMMKEFRFEPSSQMIEVQEGQNLKITITGYRTAYSCYGTVSSLNGEPEQGVAMEAVGQNDCSIYGEDTVTDEEGKFRLRGLLPGCVYHVQLKAEGNDHIERALPHHRVIEVGNNDIDDVNIIVFRQINQFDLSGNVITSSEYLPTLWVKLYKSENLDNPIQTVSLGQSLFFHFPPLLRDGENYVVLLDSTLPRSQYDYILPQVSFTAVGYHKHITLIFNPTRKLPEQDIAQGSYIALPLTLLVLLAGYNHDKLIPLLLQLTSRLQGVRALGQAASDNSGPEDAKRQAKKQKTRRT
stoichiometry N (SEC-MALS): 2
